The series addresses POU2F1 (OCT-1) POU DNA-binding domain, wild type (Homo sapiens, UniProt P14859 280-438). In words: EMSA; dose-dependent, saturation at ~0.8 uM protein; EMSA: 20 mM HEPES pH 7.9, 2 mM MgCl2, 10% glycerol, 2 mM DTT, 36 ng poly(dI-dC), 20 min room temperature; 5% native gel, 0.5x TBE, 4 C. To be noted: protein: recombinant; tags: GST fusion, thrombin-cleaved when indicated (state in EMSA not explicit); label: 5'-32P; blunt. (In general: In EMSA bound probe runs differently from free probe, usually more slowly.)

Chain of POU2F1 (OCT-1) POU DNA-binding domain, wild type (P14859 280-438): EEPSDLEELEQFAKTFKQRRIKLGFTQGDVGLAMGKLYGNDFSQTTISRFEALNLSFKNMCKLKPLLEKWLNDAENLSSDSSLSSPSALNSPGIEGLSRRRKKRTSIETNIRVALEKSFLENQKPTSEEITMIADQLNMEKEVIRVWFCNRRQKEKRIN

B1: ESR1 promoter POU2F1 element probe (-56 to -42) (dsDNA)
DNA 1: GCTATGGCCTATGCATATGAAGCCTTTATT
DNA 2: AATAAAGGCTTCATATGCATAGGCCATAGC
For B1, the binding result is recorded as “binds”.

Source of the values: publication PMC13280575, “The PER2:BRCA1:POU2F1(OCT-1) ternary complex represents a multi-component scaffold model for circadian gene regulation”.
